Source: the nanobody polyreactivity screen of Harvey et al. (2022)

Assay: yeast display, Sf9 membrane polyspecificity reagent, FACS + sequencing; frameworks hold sequencing errors
Procedure, shortened: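 After 36–48 hours of galactose induction, yeast (Saccharomyces cerevisiae BJ5465) displaying a synthetic nanobody library were stained at 4 °C for 1 hour with 10% biotinylated, detergent-solubilized Sf9 membrane reagent. Streptavidin microbeads enriched the stained cells before FACS sorting into low and high (top ~1%) gates on anti-HA and streptavidin fluorescence. Each clone's polyreactivity label reflects its gate of origin.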

Sequence: QVQLVESGGGLFQAGGSLRLSCAASGRILDYYAMGWYRQAPGKERELVAAIRRRGVITYADSVKGRFTISRDNAKNTVYLLMKSLKPEDTAVYYCAAGGYEYGYWGQGTQVTVSS
- polyreactivity (PSR sort gate): low polyreactivity

Sequence: QVQLVESGGGLVQAGGSLRLSCAASGSIFYGNTMGWYRQAPGKERELVAAISSGGSTKYADSVKGRFTISRDNAKNTVYLQMNSLKPEDTAVFYCAADLPRYWVTWMDYWGQGTQVTVSS
- polyreactivity (PSR sort gate): low polyreactivity

Sequence: QVQIVESGGGVVQAGGILRLSCAASGYTFTVYGMGWYRQAPGKERELVARITWSGGTTRYADSVKGRFTISRDNAKNNVYLQMNSLKPEDTAVYYCAASYWRPKRYRYDYWGQGTQVTVSS
- polyreactivity (PSR sort gate): high polyreactivity

Sequence: QVQLVESGGGLVQAGGSLRLSCTASGFTFVYYAMGWYRQAPGKERELVASISRSGGSTYYADSVKGRFTISRDNAKNTVYLQMNSLKPEDTAVYYCNARYGRTALLDYWGQGTQVTVSS
- polyreactivity (PSR sort gate): high polyreactivity

Sequence: QVQLVESGGGLVQAGGSLRLSCAASGSIYTNAMGWYRQAPGKERELVAAISWSGGRTYYADSVKGRFTISRDNAKNTVYLQMNSLKPEDTAVYYCNTRGTRIASGHYYWGQGTQVTVSS
- polyreactivity (PSR sort gate): high polyreactivity

Sequence: QVQLVESGGGLVQAGGSLRLSCAASGSTFVWNAMGWYRQAPGKERELVATITLSTGSSYYADSVKGRFTISRDNAKNTVYLQMNSLKPEDTAVYYCNTEIYVDIISDYGYWGQGTQLTVSS
- polyreactivity (PSR sort gate): low polyreactivity

Sequence: QVQLVESGGGLVQAGGSLRLSCAASGFIFYPYVMGWYRQAPGKERELVATIRTDGRTSYADSVKGRFTISRDNAKNTVYLQMNSLKPEDTAVYYCNTKYVRYYRRYDSWGQGTQVTVSS
- polyreactivity (PSR sort gate): high polyreactivity

Sequence: QVQLVESGGGLVQAGGSLRLSCAASGRIFVLYAMGWYRQAPGKERELVADITFDGGSTYYADSVKGRFTISRDNAKNTVYLQMNSLKPEDTAVSFCAARYRWSRKRYNDYDYWGQGTQVSVSS
- polyreactivity (PSR sort gate): high polyreactivity

Sequence: QVQLVESGGGLVQAGGSLRLSCAASGFIFRSYAMGWYRQAPGKERELVAAITKSGGRTYYADSVKGRFTISRDNAKNTVYLQMNSLKPEDSAVYYCAADQTSYSTSRRYDYWGQGTQVTVSS
- polyreactivity (PSR sort gate): high polyreactivity

Sequence: QDQLVESGGGLFQAGGSLRLSCSASGSIFQYYTMGWYRQAPGKERELVAAIKSGGRTNYADSVKGRFTISRDNAKNTVYLQMNSLKPEDTAVYYCAKRLSTRASFGEEDSWGQGTQVTVSS
- polyreactivity (PSR sort gate): low polyreactivity

Sequence: QVQLVESGGGLVQAGGSLRLSCAASGYLLGHYAMGWYRQATGKERELVAAISWSGGSTSYADSVKGRFTISRDKAKITFYLQMNSLKREDTAVYDCASAYYAYSRHAGGYWGQGTQVTVSS
- polyreactivity (PSR sort gate): low polyreactivity

Sequence: QVQLVESGGGLVQAGGSLRLSCAASGRTFRLNGMGWYRQAPGKERELVAAITWSGGRTDYADSVKGRFTISRDNAKNTVYLQMNSLKPEDTAVYYCAAGKSSYGKPKYYYWGQGTQVTVSS
- polyreactivity (PSR sort gate): high polyreactivity

Sequence: QVQLVESGGGLDQAGGSLRLSCAASGSIFPLYAKGWYRQAPGKERELVADITVSGGSTYYADSVKGRFTISRDYAKNTVYLQMNSLKPEDTAVYYCAKDNGPWFAYDYWGQGTHVTVSS
- polyreactivity (PSR sort gate): low polyreactivity

Sequence: QVQLVESGGGLVQAGGSLRLSCAAYGIIFRLKARGSNRQSPGKERELVAAITRRGGTTYYADSVKGRFTISRDNAKYTVYLQMNSLKPEDTAVFFCNTYYYWQYDWGQGTQVSVSS
- polyreactivity (PSR sort gate): high polyreactivity

Sequence: QVQLVESGGGLVQAGGSLRLSCAASGRIFPHYSMGWYRQAPGKERELVAANSWSGSSTYYADSVKGRFTISRDNAMNTVYLQMNSLKPEDTAVYYCNAVRRGIGYDYGYWGQGTQVTVSS
- polyreactivity (PSR sort gate): high polyreactivity

Sequence: QVQLVESGGGLVQAGGSLRLSCAASGSTFAVYAMGWYRQAPGKERELVAAITWSGGSTYYADSVKGRFTISRDNAKNTVYLQMNSLKPEDTAVYYCAATLIYHYWQLFIISTMGYWGQGTQVTVSS
- polyreactivity (PSR sort gate): low polyreactivity

Sequence: QVQLVESGGLLVQAGGSLRLSCAASGSNSYRYDIVWYRQPPGKERELVATIRSGGSTNYADSVKGRFTISRDNAKNTVYLQMNSLKPEDTAVYYCASRLYARKKLHFSADSDYWGQGTQVSVSS
- polyreactivity (PSR sort gate): low polyreactivity

Sequence: QVQLVESGGGLVQAGGSLRLSCAASGSIFPYYVMGWYRQAPGKERYADSVKGRFTISRDNAKNTVYLQMNSLKPVDTAVYYSAAKVPEPPSLDESDYWGQGSQVTVSS
- polyreactivity (PSR sort gate): low polyreactivity

Sequence: QVQLVESGGGSVQAGGSLRLSCAASGRTFVRYAMGWYRQAPGKERELVAAITWSGGSTYYADSVKGRFTISRDNAKNTVYLQMNSLKPEDTAVFNCADYPVQWGSLYDYWGQGTQVTVSS
- polyreactivity (PSR sort gate): high polyreactivity

Sequence: QVQLVESGGGLVQAGGSLRLSCAASGFIFGYNALGWYRQAPAKERELVAAITWIGGTTYYADSVKGRFTISRDNAKNTVYLQLNSLKPEDTAVYYCARQRSFGRSSYSHRYDYWGQGNQVTVSS
- polyreactivity (PSR sort gate): high polyreactivity

Sequence: QVQLVESGGGLVQAGGSLRLSCAASGRTFRYYAMGWYRQAPGKERELVAAITSGGSTYYADSVKGRFTISRDNAKNTVYLQMNSLKPEDTAVYYCNKDFTRTWTRHGDDYWGQGTQVTVSS
- polyreactivity (PSR sort gate): high polyreactivity

Sequence: QVQLVESGGGLVQAGGSLRLSCAASGRTSQYYAMGWYRPAPGKERELVASISRSGRTYYADSVKGRFTISRDNAKNTVYLQMNSLKPEDTAVYYCAAAKRTTHRYPYDYWGQGTQVTVSS
- polyreactivity (PSR sort gate): high polyreactivity

Sequence: QVQLVESGGGLVQAGGSLRLSCAASGIIFYWYAMGWYRQAPGKERELVAAISASGASTYYADSVKGRFTISRDNAKNTVYLQMNSLKPEDTAVYYCAAEHPWSRYDYWGQGTQVTVSS
- polyreactivity (PSR sort gate): high polyreactivity

Sequence: QVQLQESGGGLVQAGGSLRLSCAASGTIFWLWAMGWYCQAPGKERELVASISSGGTTYHADSVKGRFTISRDNAKNTVYLQMNSLKPEDTAVYYSAAFYVATAKLGFWGQGSQVTVSS
- polyreactivity (PSR sort gate): low polyreactivity

Sequence: QVQLVESGGGLVQAGGSLRLSCAASGSTFGVNAMGWYRQAPGKERELVAAISSSGSSTYADSVKGRFTISRDYAKNTVYLQMNSLKPEYTGVYYCNKTTLLTVEYDYWGQGPQVTVSS
- polyreactivity (PSR sort gate): low polyreactivity

Sequence: QVQLVESGGGLVQAGGSLRLSCAASGRIFSGYAMGWYRQAPGKERELVAVITSTGGSTYYADSVKGRFTISRDNAKNTVYLQMNSLKPEDTAVYYCATRGVRRYYKTMNYWGQGTQVTVSS
- polyreactivity (PSR sort gate): high polyreactivity

Sequence: QVQLVESGGGLVQAGGSLRLSCAASGFIFAQNAMGWYRQAPGKERELVAAISGSGGRTYYADSVKGRFTISRDNAKNTVYLQMNSLKPEDTAVYYCAAQSFSGYWGQGTQVTVSS
- polyreactivity (PSR sort gate): high polyreactivity

Sequence: QVQLVESGGGLVQAGGSLRLSCAASGFTFLIYAMGWYRQAPGKERELVAAITWRGSGTYYADSVKGRFTLSRDNAKNTVYLQMNSLKPEDTAVYYCAARTARRTFDYWGQGTQVTVSS
- polyreactivity (PSR sort gate): low polyreactivity

Sequence: QVQLVESGLGLVQAGGSLRLSCAASGRTFYYNAMGWYRQAPGKERELVAAISWSGGNTYYADSVKARFTISRDNAKNTVYLQMNSLKPEDTAVYYCAAVYRYYPGYDYWGHGTQVTVSS
- polyreactivity (PSR sort gate): high polyreactivity

Sequence: QVQLVESGGGLVQAGGSLRLSCAASGRIFTCYAMGWYRQAPGKERELVAAISSAGRTYYADSVKGRFTISRDNAKNTVYLQMNSLKPEDSAVYYCAKVSKYRHFYTFDYWGQGTQVTVSS
- polyreactivity (PSR sort gate): high polyreactivity

Sequence: QVQLVESGGGLVQAGGSLRLSCAASGSTFYFNAMGWYRQAPGKERELVAGIRYSGSSTYYADSVKGRFTISRDNAKNTVYLQMNSLKPVDTAVYYCAASLWRWRFSGFGYWGQGTQVTVSS
- polyreactivity (PSR sort gate): high polyreactivity

Sequence: KVQVVESGGCLVQAGGSLRLSCAASGFSFGGYAMGCYRQAPGKDRELVAAINYRGGSTNYADSVKGRFTISRDNAKNTVYFQMNSLKPEDTAVYYCAASYFYWRANRGPRYYWGQGTQVTVSS
- polyreactivity (PSR sort gate): high polyreactivity

Sequence: QVQLVESGGGLVQAGGSLRLSCAASGIIFSEYAMGWSRQAPGKERELVAAITKSGGSTYYADSVKGRFTISRDNAKNTVYLQMNSLKPEDTAVYYCAKKTPYIRGKDNYWGQGTQVNVSS
- polyreactivity (PSR sort gate): low polyreactivity

Sequence: QVQLVESGGGLVQAGGSLRLSCAASGLIFDWYAMGWYRPAPGKERELVADISNSGGSTNYADSVKGRFTISRDSAFNTVYLQMNSLKPEDTEVYYCAVDYYYPTLTIGYYYWGQVTQVTVSS
- polyreactivity (PSR sort gate): low polyreactivity

Sequence: QVQLVESGVGLVKAGGSLRLSCAASGITFGFYAMGWYRQAPGKDRELVASISSRGGSTNYADSVKGRFTISRDNAKNTVYLQMNSLKPEDTAVYYCAVAWLVRGGGGRRTFYSWGQGTQVTVSS
- polyreactivity (PSR sort gate): high polyreactivity

Sequence: QVQLVESGGGLVQAGGSLRLSCAASGSTFKYYAMGWYRQAPGKERELVASITRTGSSTYYADSVKGRFTISRDNAKNTVYLQMNSLKPEDTAVYFCNTGPHSVWWHYGYDYWGQGTQVTVSS
- polyreactivity (PSR sort gate): high polyreactivity

Sequence: QVQLVESGGGLVQAGGSLRLSCAASGSTFSRYTMGWSRQAPGKERELVAAISYRGGSTYYADSVKGRFTISRDNAKNTVYLQMNSLKPEDTAVYYCAADAEGSASKYDYWGQGTQVTVSS
- polyreactivity (PSR sort gate): low polyreactivity

Sequence: QVQLVESGGGLVQAGGSLRLSCAASGSTFSRYAMGWYRHAPGKERELVAAISSSGGGTYYADSVKGRFTISRDTAKNTVFFQMNSLKPEDTAVYYCAKSYRRRQGYYYWGQGTQVTVSS
- polyreactivity (PSR sort gate): high polyreactivity

Sequence: QDQLVESGGALVQPGGSLRLSCAASGRLLGRYAMGWYRQAPGKDRELVATITSGDDTNYADSVKGRFTISRDNAKNTVYLQMNSLKPEDTAVGYWGQGTQVTVSS
- polyreactivity (PSR sort gate): low polyreactivity

Sequence: QVQLVESGGGLVQAGGSLRLSCAASGSIFLRYAMGWYRQAPGKERELVASITSGGSRYYADSVKGRFTISRDNAKNTVYFQMNSLKPEDTAVYYCNALPYRYRRYDYWGQGTQVTVSS
- polyreactivity (PSR sort gate): low polyreactivity

Sequence: QVQLVESGGGLVQAGGRLRLSCAASGRTFTVYAMGWYRQAPGKEREFVAAITERGGSTYYADSVKGRFTISRDNAKNTVYLKMNSLKPEDTSVYYFAAVFYWRPGWYVRFDYWGQGTQVTVSS
- polyreactivity (PSR sort gate): low polyreactivity

Sequence: QVQLVESGGGLVQAGGSLRLSCAASGLTFRYNTMGWYRQAPGKEREFVAAINYGGGSTYYADSVKGRFTISRDNAKNTVYLQMNSLKPEDTAVYYCARRTPRTPVTLYDYWGQGTQVTVSS
- polyreactivity (PSR sort gate): high polyreactivity

Sequence: QVQLVESGGGLVQAGGSLRLSCAASGSTFRYNAMGWYRQAPGKERELVAAISKGGGRTYYADSVKGRFTISRDNAKNTVYLQMNSLKPEDTAVYYCAATYGTGRRSKYGYWGQGTQVTVSS
- polyreactivity (PSR sort gate): high polyreactivity
